“And” between values parts separate entries of the source, which are not always exact repeats. Identical values can stand only once.
Key:
[1] = target: His-MeSufB (Monocercomonoides exilis); assay: mass photometry
[2] = target: T25-MeSufB (Monocercomonoides exilis); assay: two-hybrid
[3] = target: His-MeSufC (expressed alone in E. coli) (Monocercomonoides exilis); assay: SEC
[4] = target: MeSufBC complex (His-MeSufB with MeSufC-HA) (Monocercomonoides exilis); assay: mass photometry
[5] = target: MeSufBC complex (His-MeSufB with MeSufC-HA) (Monocercomonoides exilis); assay: mass photometry; remark: listed apart in the source
[6] = target: MeSufBC complex (His-MeSufB with MeSufC-HA) (Monocercomonoides exilis); assay: SEC
[7] = target: MeSufBC complex (His-MeSufB with MeSufC-HA) (Monocercomonoides exilis); assay: SEC; remark: listed apart in the source
[8] = target: T25-MeSufC (Monocercomonoides exilis); assay: two-hybrid

Molecule MeSufC-HA (enzyme) has a stoichiometry N (MeSufC per MeSufB) [1] of 1.

With MeSufC-T18 (natural protein) the β-galactosidase activity (BACTH) [2] was 670 Miller units.

Work on “His-MeSufC (expressed alone in E. coli) (enzyme)” yielded a stoichiometry N [3] of 2.

For “MeSufBC complex (His-MeSufB with MeSufC-HA)”, the stoichiometry N (MeSufBC units) [4] was 2, the stoichiometry N (MeSufBC units) [5] was 2 and the stoichiometry N (MeSufBC units) [6] was 2 and 4. The stoichiometry N (MeSufBC units) [7] was 4.

B1: EcSufC-T18 (natural protein)
chain: MLSIKDLHVSVEDKAILRGLSLDVHPGEVHAIMGPNGSGKSTLSATLAGREDYEVTGGTVEFKGKDLLALSPEDRAGEGIFMAFQYPVEIPGVSNQFFLQTALNAVRSYRGQETLDRFDFQDLMEEKIALLKMPEDLLTRSVNVGFSGGEKKRNDILQMAVLEPELCILDESDSGLDIDALKVVADGVNSLRDGKRSFIIVTHYQRILDYIKPDYVHVLYQGRIVKSGDFTLVKQLEEQGYGWLTEQQ
Molecule B1 has a β-galactosidase activity (BACTH) [2] of 1040 Miller units.

B2: EcSufB-T18 (natural protein)
chain: MSRNTEATDDVKTWTGGPLNYKEGFFTQLATDELAKGINEEVVRAISAKRNEPEWMLEFRLNAYRAWLEMEEPHWLKAHYDKLNYQDYSYYSAPSCGNCDDTCASEPGAVQQTGANAFLSKEVEAAFEQLGVPVREGKEVAVDAIFDSVSVATTYREKLAEQGIIFCSFGEAIHDHPELVRKYLGTVVPGNDNFFAALNAAVASDGTFIYVPKGVRCPMELSTYFRINAEKTGQFERTILVADEDSYVSYIEGCSAPVRDSYQLHAAVVEVIIHKNAEVKYSTVQNWFPGDNNTGGILNFVTKRALCEGENSKMSWTQSETGSAITWKYPSCILRGDNSIGEFYSVALTSGHQQADTGTKMIHIGKNTKSTIISKGISAGHSQNSYRGLVKIMPTATNARNFTQCDSMLIGANCGAHTFPYVECRNNSAQLEHEATTSRIGEDQLFYCLQRGISEEDAISMIVNGFCKDVFSELPLEFAVEAQKLLAISLEHSVG
For B2, the β-galactosidase activity (BACTH) [8] was 556 Miller units.
